This data set can be described thus: self-splicing fitness, log relative to wild type (ln ratio); higher = more splicing; Tetrahymena group I intron in knt gene, E. coli kanamycin selection, DiMSum; sequences stand for … in CUCUCU…GGAGGGAAAAGUUAUCAGGCAUGCACCUGGUAGCUAGUCUUUAAACCAAUAGAUUGCAUCGGUUUAAAAGGCAAGACCGUCAAAUUGCGGGAAAGGGGUCAACAGCCGUUCAGUACCAAGUCUCAGGGGAAACUUUGAGAUGGCCUUGCAAAGGGUAUGGUAAUAAGCUGACGGACAUGGUCCUAACCACGCAGCCAAGUCCUAAGUCAACAGAUCUUCUGUUGAUAUGGAUGCAGUUCACAGACUAAAUGUCGGUCGGGGAAGAUGUAUUCUUCUCAUAAGAUAUAGUCGGACCUCUCCUUAAUGGGAGCUAGCGGAUGAAGUGAUGCAACACUGGAGCCGCUGGGAACUAAUUUGUAUGCGAAAGUAUAUUGAUUAGUUUUGGAGUACUCGUGGUCG
The essentials: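 Fitness was computed with DiMSum as the error-weighted combination of replicate fold changes, kanamycin versus none, each normalised to wild type. The library randomised all eight intron nucleotides of the P1ex region, with the intron placed in the knt kanamycin-resistance gene on pET-22b(+) in E. coli BL21(DE3). Six replicate transformations were grown overnight at 37°C or 30°C on LB agar with or without 25 μg/mL kanamycin, plus 100 μg/mL carbenicillin, 50 μM IPTG and 0.2% rhamnose. Pooled colonies were amplicon-sequenced on an Illumina HiSeq 2500.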

± gives the uncertainty stated by the source.

On to UAUCAGCAAUAUUACGUCGA, for which the “self-splicing fitness (ln)” value is, setting by setting: (30 °C) -1.16 ± 0.1; (37 °C) 0.104 ± 0.12.
For UAUCAGCAAUAUUACGUGCU, in that order: -3.64 ± 0.21 and -2.1 ± 0.16.
As for UAUCAGCAAUAUUACGUGGA, the “self-splicing fitness (ln)” value reads like this: (30 °C) -1.05 ± 0.098; (37 °C) -0.739 ± 0.099.
For the sequence UAUCAGCAAUAUUACGUGGU, the “self-splicing fitness (ln)” value runs as follows: (30 °C) -3.97 ± 0.2; (37 °C) -0.774 ± 0.13.
For UAUCAGCAAUAUUACGUUGC the same measures were -3.53 ± 0.18 and -2.37 ± 0.15.
With UAUGAGCAAUAUUACGAAAG, for the setting “30 °C”, the “self-splicing fitness (ln)” value is -2.55 ± 0.39.
Consider UAUGAGCAAUAUUACGAGCA, for which the “self-splicing fitness (ln)” value reads like this: (30 °C) -2.47 ± 0.17; (37 °C) -2.09 ± 0.31.
For UAUGAGCAAUAUUACGAGUA the same measures were -2.16 ± 0.19 and -0.862 ± 0.18.
Take UAUGAGCAAUAUUACGAUCA: the “self-splicing fitness (ln)” value is -2.24 ± 0.16 (30 °C) and -1.27 ± 0.14 (37 °C).
For the sequence UAUGAGCAAUAUUACGAUCU, the “self-splicing fitness (ln)” value by setting is: (30 °C) -1.76 ± 0.23; (37 °C) -2 ± 0.31.
For UAUGAGCAAUAUUACGAUGA the same measures were -1.41 ± 0.12 and -1.68 ± 0.16.
For UAUGAGCAAUAUUACGAUGU the same measures were -4.02 ± 0.37 and -3.62 ± 0.46.
As for UAUGAGCAAUAUUACGCACA, the “self-splicing fitness (ln)” value (30 °C) was -0.923 ± 0.21 and the “self-splicing fitness (ln)” value (37 °C) is -0.282 ± 0.21.
UAUGAGCAAUAUUACGCGGU: the “self-splicing fitness (ln)” value was -3.41 ± 0.21 (30 °C) and -2.68 ± 0.3 (37 °C).
For UAUGAGCAAUAUUACGGACU the same measures were -3.55 ± 0.4 and -2.46 ± 0.26.
For UAUGAGCAAUAUUACGGAGG the same measures were -3.2 ± 0.17 and -2.53 ± 0.29.
For UAUGAGCAAUAUUACGGUAG, in that order: -1.79 ± 0.37 and -1.88 ± 0.36.
For UAUGAGCAAUAUUACGUCAC, the “self-splicing fitness (ln)” value by setting is: (30 °C) -4.15 ± 0.46; (37 °C) -2.26 ± 0.49.
For UAUGAGCAAUAUUACGUUCG, in that order: -1.45 ± 0.091 and -0.169 ± 0.12.
For UAUUAGCAAUAUUACGAACA, in that order: -0.315 ± 0.16 and 0.101 ± 0.14.
In the case of UAUUAGCAAUAUUACGAACG, the “self-splicing fitness (ln)” value is -0.156 ± 0.12 (30 °C) and 0.194 ± 0.14 (37 °C).
For UAUUAGCAAUAUUACGAACU the same measures were -1.27 ± 0.11 and -0.806 ± 0.13.
As to UAUUAGCAAUAUUACGAGAA, the “self-splicing fitness (ln)” value (37 °C) was -2.92 ± 0.47.
In the case of UAUUAGCAAUAUUACGAGCU, the “self-splicing fitness (ln)” value reads like this: (30 °C) -2.63 ± 0.26; (37 °C) 0.924 ± 0.21.
In the case of UAUUAGCAAUAUUACGAGGA, the “self-splicing fitness (ln)” value was -2.33 ± 0.19 (30 °C) and -1.54 ± 0.18 (37 °C).
For UAUUAGCAAUAUUACGAGUG the same measures were -0.139 ± 0.069 and 0.196 ± 0.087.
Take UAUUAGCAAUAUUACGAUCG: the “self-splicing fitness (ln)” value reads like this: (30 °C) -0.211 ± 0.12; (37 °C) 0.607 ± 0.18.
For UAUUAGCAAUAUUACGCAAA, in that order: -1.67 ± 0.3 and -1.83 ± 0.27.
As to UAUUAGCAAUAUUACGCAUG, the “self-splicing fitness (ln)” value by setting is: (30 °C) -0.961 ± 0.081; (37 °C) -0.197 ± 0.11.
Turning to UAUUAGCAAUAUUACGCCCA, the “self-splicing fitness (ln)” value was -0.378 ± 0.23 (30 °C) and -0.366 ± 0.3 (37 °C).
For the sequence UAUUAGCAAUAUUACGCGCG, the “self-splicing fitness (ln)” value was -0.142 ± 0.17 (30 °C) and -0.528 ± 0.17 (37 °C).
UAUUAGCAAUAUUACGCGCU: the “self-splicing fitness (ln)” value by setting is: (30 °C) -0.731 ± 0.15; (37 °C) -0.558 ± 0.18.
Regarding UAUUAGCAAUAUUACGCUCG, the “self-splicing fitness (ln)” value (30 °C) is -0.476 ± 0.17 and the “self-splicing fitness (ln)” value (37 °C) came out at 0.237 ± 0.2.
For UAUUAGCAAUAUUACGGCCG, in that order: -0.0472 ± 0.19 and 0.135 ± 0.31.
Consider UAUUAGCAAUAUUACGGGCG, for which the “self-splicing fitness (ln)” value (30 °C) was -0.882 ± 0.076 and the “self-splicing fitness (ln)” value (37 °C) worked out at 0.185 ± 0.083.
Turning to UAUUAGCAAUAUUACGGUGA, the “self-splicing fitness (ln)” value is -1.92 ± 0.12 (30 °C) and -1.33 ± 0.11 (37 °C).
Turning to UAUUAGCAAUAUUACGUACA, the “self-splicing fitness (ln)” value is -0.773 ± 0.22 (30 °C) and -0.493 ± 0.23 (37 °C).
For UAUUAGCAAUAUUACGUAGU the same measures were -2.56 ± 0.26 and -2.47 ± 0.35.
In the case of UAUUAGCAAUAUUACGUGAU, the “self-splicing fitness (ln)” value is -2.82 ± 0.17 (30 °C) and -1.99 ± 0.18 (37 °C).
As for UAUUAGCAAUAUUACGUGGC, the “self-splicing fitness (ln)” value (37 °C) is -1.84 ± 0.39.
As to UAUUAGCAAUAUUACGUGUC, the “self-splicing fitness (ln)” value (30 °C) is -3.34 ± 0.39.
Consider UCAAAGCAAUAUUACGAAAA, for which the “self-splicing fitness (ln)” value (37 °C) was -2.95 ± 0.27.
UCAAAGCAAUAUUACGAACG: the “self-splicing fitness (ln)” value is -0.696 ± 0.076 (30 °C) and -0.646 ± 0.11 (37 °C).
For UCAAAGCAAUAUUACGAAUG the same measures were -1.71 ± 0.11 and -1.67 ± 0.25.
For the sequence UCAAAGCAAUAUUACGAGAC, the “self-splicing fitness (ln)” value reads like this: (30 °C) -3.15 ± 0.17; (37 °C) -2.76 ± 0.22.
For UCAAAGCAAUAUUACGAGUG the same measures were -0.846 ± 0.048 and -0.965 ± 0.067.
For the sequence UCAAAGCAAUAUUACGAUCU, the “self-splicing fitness (ln)” value by setting is: (30 °C) -2.82 ± 0.13; (37 °C) -0.778 ± 0.12.
For UCAAAGCAAUAUUACGCAAG, in that order: -2.18 ± 0.14 and -1.48 ± 0.15.
As for UCAAAGCAAUAUUACGCAUC, the “self-splicing fitness (ln)” value was -3.83 ± 0.19 (30 °C) and -3.11 ± 0.31 (37 °C).
For UCAAAGCAAUAUUACGCAUU the same measures were -3.2 ± 0.4 and -3.34 ± 0.37.
UCAAAGCAAUAUUACGCCAC: the “self-splicing fitness (ln)” value (30 °C) was -2.5 ± 0.24 and the “self-splicing fitness (ln)” value (37 °C) was -2.07 ± 0.38.
As for UCAAAGCAAUAUUACGCCAG, the “self-splicing fitness (ln)” value reads like this: (30 °C) -1.35 ± 0.13; (37 °C) -0.892 ± 0.18.
With UCAAAGCAAUAUUACGCCCG, the “self-splicing fitness (ln)” value is, setting by setting: (30 °C) -1.66 ± 0.2; (37 °C) -0.884 ± 0.27.
For UCAAAGCAAUAUUACGCCCU, in that order: -3.06 ± 0.44 and -0.887 ± 0.18.
For UCAAAGCAAUAUUACGCGAA the same measures were -1.88 ± 0.11 and -0.986 ± 0.12.
For UCAAAGCAAUAUUACGCGCU, in that order: -3.63 ± 0.47 and -2.53 ± 0.45.
Take UCAAAGCAAUAUUACGCGGA: the “self-splicing fitness (ln)” value was -2.87 ± 0.13 (30 °C) and -1.37 ± 0.11 (37 °C).
For UCAAAGCAAUAUUACGCUGC, in that order: -3.2 ± 0.43 and -2.49 ± 0.33.
For UCAAAGCAAUAUUACGGCUG the same measures were -0.827 ± 0.056 and 0.231 ± 0.078.
For UCAAAGCAAUAUUACGGGAC the same measures were -1.98 ± 0.2 and -1.75 ± 0.25.
On to UCAAAGCAAUAUUACGGGCG, for which the “self-splicing fitness (ln)” value is -0.842 ± 0.065 (30 °C) and -0.266 ± 0.083 (37 °C).
As to UCAAAGCAAUAUUACGGGGA, the “self-splicing fitness (ln)” value runs as follows: (30 °C) -0.69 ± 0.075; (37 °C) -0.383 ± 0.085.
Turning to UCAAAGCAAUAUUACGUCUA, the “self-splicing fitness (ln)” value runs as follows: (30 °C) -1.92 ± 0.1; (37 °C) -0.787 ± 0.098.
For the sequence UCAAAGCAAUAUUACGUGAA, the “self-splicing fitness (ln)” value runs as follows: (30 °C) -1.42 ± 0.069; (37 °C) -1.06 ± 0.1.
Regarding UCAAAGCAAUAUUACGUGGU, the “self-splicing fitness (ln)” value by setting is: (30 °C) -4.25 ± 0.26; (37 °C) -2.19 ± 0.18.
For UCAAAGCAAUAUUACGUUUG, in that order: -3.43 ± 0.16 and -1.82 ± 0.14.
For UCACAGCAAUAUUACGAAAG the same measures were -3.82 ± 0.25 and -2.73 ± 0.23.
Regarding UCACAGCAAUAUUACGAGCA, the “self-splicing fitness (ln)” value (30 °C) is -1.28 ± 0.081 and the “self-splicing fitness (ln)” value (37 °C) came to 0.102 ± 0.089.
For UCACAGCAAUAUUACGAGCC the same measures were -2.07 ± 0.22 and -2.3 ± 0.5.
In the case of UCACAGCAAUAUUACGCAGA, the “self-splicing fitness (ln)” value is -2.54 ± 0.12 (30 °C) and -2.16 ± 0.14 (37 °C).
As for UCACAGCAAUAUUACGCAUU, the “self-splicing fitness (ln)” value (30 °C) was -2.93 ± 0.22.
With UCACAGCAAUAUUACGCCAC, the “self-splicing fitness (ln)” value (37 °C) is -3.66 ± 0.3.
Turning to UCACAGCAAUAUUACGCCCC, the “self-splicing fitness (ln)” value (30 °C) is -0.433 ± 0.3 and the “self-splicing fitness (ln)” value (37 °C) was -1.51 ± 0.41.
For UCACAGCAAUAUUACGCGGA, the “self-splicing fitness (ln)” value was -1.81 ± 0.18 (30 °C) and -2.12 ± 0.27 (37 °C).
For UCACAGCAAUAUUACGCGUC, in that order: -3.18 ± 0.31 and -1.55 ± 0.16.
For UCACAGCAAUAUUACGCUAA the same measures were -2.39 ± 0.12 and -2.27 ± 0.18.
For the sequence UCACAGCAAUAUUACGCUCU, the “self-splicing fitness (ln)” value was -2.38 ± 0.16 (30 °C) and -3.34 ± 0.47 (37 °C).

(Values after the supplement of paper PMC7877785.)
